Measurements: patent US20210163594A1 (INVENRA, published 2021)

T1: CD3
T1 chain: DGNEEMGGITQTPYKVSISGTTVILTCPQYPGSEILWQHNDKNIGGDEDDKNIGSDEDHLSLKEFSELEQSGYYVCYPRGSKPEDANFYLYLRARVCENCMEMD


What was measured:
[1] = target: T1, CD3; experiment: BLI (Octet), two-fold serial dilution (200-12.5 nM) of the monovalent B-Body
[2] = target: CTLA4 (UniProt P16410 36-161, limits assumed); experiment: BLI (Octet), antigen immobilized, B-Body as analyte
Excerpt: In each instance, the antigen is immobilized and the B-Body is the analyte.

Sequence of CTLA4 (P16410 36-161 limits assumed): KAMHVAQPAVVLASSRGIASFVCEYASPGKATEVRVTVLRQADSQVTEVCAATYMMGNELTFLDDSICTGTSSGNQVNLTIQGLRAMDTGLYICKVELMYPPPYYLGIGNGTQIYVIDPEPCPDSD

Binder	Kd [1] [µM]	koff [1] [s⁻¹]	kon [1] [M⁻¹ s⁻¹]	binding result [2]
non-mutagenized SP34-89 monovalent B-Body (bispecific antibody, V domains shown, VL and VH were cloned into one arm of a 1×1 BC1 B-Body; Constant parts as in the BC1 scaffold; also called SP34-89 VL-WT/SP34-89 VH-WT) VH: EVQLVESGGGLVQPGGSLRLSCAASGFTFNTYAMNWVRQAPGKGLEWVARIRSKYNNYATYYADSVKGRFSISRDDSKNTAYLQMNSLRAEDTAVYYCVRHGNFGNSYVSWFAYWGQGTLVTV VL: QAVVTQEPSLTVSPGGTVTLTCRSSTGAVTTSNYANWVQQKPGQAPRGLIGGTNKRAPWTPARFSGSLLGGKAALTITGAQAEDEADYYCALWYSNLWVFGGGTKLTVL	0.023	0.0071	300000	–
BC1 (bispecific antibody, also called bivalent bispecific B-Body BC1; bivalent 1×1 construct BC1) chain 1: not shown chain 2: EVQLVESGGGLVQPGGSLRLSCAASGFTFSDYDIHWVRQAPGKGLEWVGDITPYDGTTNYADSVKGRFTISADTSKNTAYLQMNSLRAEDTAVYYCARLVGEIATGFDYWGQGTLVTVSSASPREPQVYTDPPSRDELTKNQVSLTCLVKGFYPSDIAVEWESNGQPENNYKTTPPVLDSDGSFFLYSKLTVDKSRWQQGNVFSCSVMHEALHNHYTQKSLSLSGEC chain 3: not shown chain 4: QVQLVESGGGVVQPGRSLRLDCKASGITFSNSGMHWVRQAPGKGLEWVAVIWYDGSKRYYADSVKGRFTISRDNSKNTLFLQMNSLRAEDTAVYYCATNDDYWGQGTLVTVSSASTKGPSVFPLAPSSKSTSGGTAALGCLVKDYFPEPVTVSWNSGALTSGVHTFPAVLQSSGLYSLSSVVTVPSSSLGTQTYICNVNHKPSNTKVDKKVEPPKSC	–	–	–	no binding
